B1: GST-NONO fragment F4 (229-471 aa) (domain or fragment, UniProt Q15233 229-471, looked up)
chain: QLDDEEGLPEKLVIKNQQFHKEREQPPRFAQPGSFEYEYAMRWKALIEMEKQQQDQVDRNIKEAREKLEMEMEAARHEHQVMLMRQDLMRRQEELRRMEELHNQEVQKRKQLELRQEEERRRREEEMRRQQEEMMRRQQEGFKGTFPDAREQEIRMGQMAMGGAMGINNRGAMPPAPVPAGTPAPPGPATMMPDGTLGLTPPTTERFGQAATMEGIGAIGGTPPAFNRAAPGAEFAPNKRRRY
notes: NONO residues 229-471, from the pGEX-6P-1 plasmid; also called GST-NONO F4; source: E. coli BL21, purified (glutathione S-transferase beads)
B2: GST-PKM2 fragment F4 (390-531 aa) (domain or fragment, UniProt P14618 390-531, looked up)
chain: YHLQLFEELRRLAPITSDPTEATAVGAVEASFKCCSGAIIVLTKSGRSAHQVARYRPRAPIIAVTRNPQTARQAHLYRGIFPVLCKDPVQEAWAEDVDLRVNFAMNVGKARGFFKKGDVVIVLTGWRPGSGFTNTMRVVPVP
notes: PKM2 residues 390-531, from the pGEX-6P-1 plasmid; also called GST-PKM2 F4; source: E. coli BL21, purified (glutathione S-transferase beads)
B3: His-NONO fusion protein (natural protein, UniProt Q15233 1-471, looked up)
chain: MQSNKTFNLEKQNHTPRKHHQHHHQQQHHQQQQQQPPPPPIPANGQQASSQNEGLTIDLKNFRKPGEKTFTQRSRLFVGNLPPDITEEEMRKLFEKYGKAGEVFIHKDKGFGFIRLETRTLAEIAKVELDNMPLRGKQLRVRFACHSASLTVRNLPQYVSNELLEEAFSVFGQVERAVVIVDDRGRPSGKGIVEFSGKPAARKALDRCSEGSFLLTTFPRPVTVEPMDQLDDEEGLPEKLVIKNQQFHKEREQPPRFAQPGSFEYEYAMRWKALIEMEKQQQDQVDRNIKEAREKLEMEMEAARHEHQVMLMRQDLMRRQEELRRMEELHNQEVQKRKQLELRQEEERRRREEEMRRQQEEMMRRQQEGFKGTFPDAREQEIRMGQMAMGGAMGINNRGAMPPAPVPAGTPAPPGPATMMPDGTLGLTPPTTERFGQAATMEGIGAIGGTPPAFNRAAPGAEFAPNKRRRY
notes: NONO, from the pET28a plasmid; source: E. coli BL21, purified (nickel-nitrilotriacetic acid beads)
B4: full-length GST-NONO (natural protein, UniProt Q15233 1-471, looked up)
chain: B3 chain
notes: NONO, full length (fragments run to residue 471), from the pGEX-6P-1 plasmid; also called GST-NONO fusion protein; source: E. coli BL21, purified (glutathione S-transferase beads)

What was measured:
Details in all cases: both partners purified
His-PKM2 fusion protein = molecular target: T1, His-PKM2 fusion protein (UniProt P14618 1-531); test: pull-down; GST pull-down: GST-NONO (full length or fragments) on glutathione-Sepharose beads mixed with His-PKM2 for 4 h at 4 °C, five washes, western blot
T1 construct: PKM2, from the pET28a plasmid; source: E. coli BL21, purified (nickel-nitrilotriacetic acid beads)

His-NONO fusion protein = molecular target: B3; test: pull-down; GST pull-down: GST-PKM2 (full length, fragments or mutants) incubated with His-NONO at 4 °C for 4 h, five washes, western blot
[1] = molecular target: T2, full-length GST-PKM2, wild type (UniProt P14618 1-531); test: as above
T2 construct: PKM2, full length (fragments run to residue 531), from the pGEX-6P-1 plasmid; also called GST-PKM2 WT; PKM2-WT; source: E. coli BL21, purified (glutathione S-transferase beads)

GST-PKM2-S406A mutant = molecular target: T3, GST-PKM2-S406A mutant (UniProt P14618 1-531, S406A); test: as above
T3 construct: Probably made on the full-length GST-PKM2; source: E. coli BL21, purified (glutathione S-transferase beads)

GST-PKM2-R400A mutant = molecular target: T4, GST-PKM2-R400A mutant (UniProt P14618 1-531, R400A); test: as above
T4 construct: PKM2 point mutant, from the pGEX-6P-1 plasmid; Probably made on the full-length GST-PKM2; source: E. coli BL21, purified (glutathione S-transferase beads)

GST-PKM2-T412A mutant = molecular target: T5, GST-PKM2-T412A mutant (UniProt P14618 1-531, T412A); test: as above
T5 construct: PKM2 point mutant, from the pGEX-6P-1 plasmid; Probably made on the full-length GST-PKM2; source: E. coli BL21, purified (glutathione S-transferase beads)

GST-PKM2-D476A mutant = molecular target: T6, GST-PKM2-D476A mutant (UniProt P14618 1-531, D476A); test: as above
T6 construct: PKM2 point mutant, from the pGEX-6P-1 plasmid; Probably made on the full-length GST-PKM2; source: E. coli BL21, purified (glutathione S-transferase beads)

GST-PKM2-D487A mutant = molecular target: T7, GST-PKM2-D487A mutant (UniProt P14618 1-531, D487A); test: as above
T7 construct: PKM2 point mutant, from the pGEX-6P-1 plasmid; Probably made on the full-length GST-PKM2; source: E. coli BL21, purified (glutathione S-transferase beads)

GST-PKM2-W515A mutant = molecular target: T8, GST-PKM2-W515A mutant (UniProt P14618 1-531, W515A); test: as above
T8 construct: PKM2 point mutant, from the pGEX-6P-1 plasmid; Probably made on the full-length GST-PKM2; source: E. coli BL21, purified (glutathione S-transferase beads)

GST-PKM2-R526A mutant = molecular target: T9, GST-PKM2-R526A mutant (UniProt P14618 1-531, R526A); test: as above
T9 construct: PKM2 point mutant, from the pGEX-6P-1 plasmid; Probably made on the full-length GST-PKM2; source: E. coli BL21, purified (glutathione S-transferase beads)
T9 sequence (P14618 whole entry R526A): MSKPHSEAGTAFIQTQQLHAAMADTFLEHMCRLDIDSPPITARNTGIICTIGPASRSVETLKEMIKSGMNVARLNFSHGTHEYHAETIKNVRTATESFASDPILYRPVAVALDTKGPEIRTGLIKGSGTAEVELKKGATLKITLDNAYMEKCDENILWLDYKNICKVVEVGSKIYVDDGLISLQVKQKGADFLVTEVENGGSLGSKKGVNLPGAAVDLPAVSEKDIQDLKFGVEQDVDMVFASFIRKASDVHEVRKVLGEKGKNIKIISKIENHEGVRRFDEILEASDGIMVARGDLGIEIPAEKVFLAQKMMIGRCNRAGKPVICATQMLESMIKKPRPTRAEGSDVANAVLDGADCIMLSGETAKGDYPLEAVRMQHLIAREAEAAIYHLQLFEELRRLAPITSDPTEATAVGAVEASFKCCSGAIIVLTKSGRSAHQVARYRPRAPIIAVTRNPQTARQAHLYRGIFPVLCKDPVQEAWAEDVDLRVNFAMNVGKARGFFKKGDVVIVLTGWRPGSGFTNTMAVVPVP

T8 sequence (P14618 whole entry W515A): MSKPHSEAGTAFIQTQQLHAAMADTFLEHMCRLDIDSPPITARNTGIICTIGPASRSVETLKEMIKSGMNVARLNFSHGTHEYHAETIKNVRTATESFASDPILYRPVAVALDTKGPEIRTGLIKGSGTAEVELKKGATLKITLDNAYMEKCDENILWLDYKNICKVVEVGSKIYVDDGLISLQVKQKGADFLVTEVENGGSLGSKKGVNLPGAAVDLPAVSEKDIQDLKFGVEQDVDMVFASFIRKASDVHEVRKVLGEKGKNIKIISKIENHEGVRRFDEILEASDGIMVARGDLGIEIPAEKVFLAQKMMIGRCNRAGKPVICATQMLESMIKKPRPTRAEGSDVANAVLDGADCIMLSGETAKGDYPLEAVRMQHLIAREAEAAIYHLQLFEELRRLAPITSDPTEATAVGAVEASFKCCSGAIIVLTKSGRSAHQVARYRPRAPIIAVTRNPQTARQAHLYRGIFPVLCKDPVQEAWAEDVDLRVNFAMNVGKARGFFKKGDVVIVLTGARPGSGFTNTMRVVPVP

Binder: B1
- binding result (His-PKM2 fusion protein): binds

Binder: B2
- binding result (His-NONO fusion protein): binds

Binder: B3
- binding result [1]: binds
- binding result (GST-PKM2-S406A mutant): binds
- binding result (GST-PKM2-R400A mutant): binds
- binding result (GST-PKM2-T412A mutant): binds
- binding result (GST-PKM2-D476A mutant): binds
- binding result (GST-PKM2-D487A mutant): binds
- binding result (GST-PKM2-W515A mutant): binds
- binding result (GST-PKM2-R526A mutant): binds

Binder: B4
- binding result (His-PKM2 fusion protein): binds
